Assay results from the supplement of paper PMC9732359.
± gives the uncertainty stated by the source.

Assay: protein stability index of a GFP-peptide fusion (yeast GPS) (PSI 1-4); higher = more stable; sorted into four equal gates, so the index is relative within each strain
Method in brief: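 Plasmids isolated from each sorting gate were PCR-amplified and Illumina-sequenced, and barcodes assigned the reads to strains. The gates, four of equal size, were set by GFP/Cherry fluorescence ratio on mid-log cultures in leucine-free medium. These cultures were yeast carrying a pooled library of tiled 17-residue yeast protein peptides fused downstream of GFP on a plasmid that also expresses Cherry. The protein stability index is the sum of every gate's read frequency times its gate number.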

Sequence	protein stability index (doa10∆)	protein stability index (pdr5∆)	protein stability index (san1∆)	protein stability index (ubr1∆)
TNFSPTPANNGENAAEK [SNF2]	2.42 ± 0.067	2.77 ± 0.072	2.21 ± 0.074	2.81 ± 0.05
TNHSAAASTPTTTATPH [PGD1]	2.91 ± 0.033	3.026 ± 0.029	2.99 ± 0.027	2.939 ± 0.023
TNILISPLNTTTKILGD [YML103C/NUP188]	2.15 ± 0.058	2.42 ± 0.05	2.04 ± 0.086	1.51 ± 0.033
TNNVLRKLGLLGDKEDE [MTW1]	2.27 ± 0.048	2.35 ± 0.054	1.85 ± 0.085	2.58 ± 0.049
TNPSSIFGGAGGVPTTS [YOR098C/NUP1]	1.72 ± 0.066	2.36 ± 0.076	2.15 ± 0.086	1.59 ± 0.053
TNWIIYPLWVMAKQLIR [CSN12]	1.39 ± 0.11	1.2 ± 0.13	–	1.24 ± 0.11
TPAELVGKFLGYVSSLV [FAS1]	1.93 ± 0.064	2.04 ± 0.085	1.73 ± 0.081	2.06 ± 0.055
TPEYAAEKVKVRDELRK [UBP6]	1.28 ± 0.068	1.61 ± 0.083	1.42 ± 0.14	1.46 ± 0.07
TPIIFIGTGEHIHDLEK [SRP54]	1.94 ± 0.071	2.42 ± 0.063	2.76 ± 0.068	2.45 ± 0.056
TPLTENILIASLMDTLI [YCG1]	1.86 ± 0.049	1.7 ± 0.04	2.07 ± 0.069	2.35 ± 0.035
TPNTNSNSTPNANQQFL [SWI1]	3.11 ± 0.054	3.15 ± 0.047	2.93 ± 0.053	3.1 ± 0.035
TPPAIEHKPVSPDKIGT [SSN2]	3.03 ± 0.072	3.35 ± 0.066	3.12 ± 0.076	3.17 ± 0.06
TPPDDLHPYVPSSKPQE [SRB8]	2.71 ± 0.081	2.98 ± 0.073	2.93 ± 0.048	3.07 ± 0.049
TPYNADFDGDEMNLHVP [RPO31]	2.83 ± 0.087	3.35 ± 0.085	3.07 ± 0.075	3.21 ± 0.062
TQARVITGNKIMRILKS [RPS13]	1.41 ± 0.17	1.24 ± 0.081	1.18 ± 0.12	1.1 ± 0.079
TQIVAKFPETSYPILNE [SIN4]	2.92 ± 0.091	3.02 ± 0.068	2.91 ± 0.081	2.89 ± 0.057
TQLSYLISSSLSNLSKD [YCS4]	1.7 ± 0.041	1.65 ± 0.041	1.63 ± 0.074	2.13 ± 0.045
TQSYNNQNTLKEISARR [POP1]	2.29 ± 0.041	2.48 ± 0.035	2.24 ± 0.063	2.78 ± 0.037
TRDDLLTILMRSIMKNR [RRI2]	2.36 ± 0.082	2.61 ± 0.087	2.22 ± 0.29	2.75 ± 0.067
TRLTAYQELAYRATSLD [YML031W/NDC1]	3.13 ± 0.11	3.01 ± 0.11	3.32 ± 0.072	3.04 ± 0.11
TRMQRGHRADVGGQFSK [REC8]	2.98 ± 0.13	3.32 ± 0.13	3.27 ± 0.074	3.39 ± 0.12
TRNSLGNVIQFIYGEDG [RPO21]	3.01 ± 0.06	2.92 ± 0.053	3.25 ± 0.042	3.28 ± 0.037
TRNSNNLAIVELVRLLI [BRR2]	2.56 ± 0.06	2.29 ± 0.049	2.53 ± 0.066	2.4 ± 0.049
TRPYILERARDVNIVNR [YCG1]	3.29 ± 0.1	2.78 ± 0.21	3.48 ± 0.18	3.08 ± 0.11
TRSHFNALYDTLLESNL [RPN6]	2.3 ± 0.05	2.49 ± 0.057	2.65 ± 0.047	2.69 ± 0.042
TSAHLKLKEMQKVLNAH [SMC4]	2.41 ± 0.13	2.76 ± 0.17	2.63 ± 0.096	1.97 ± 0.085

Sequence	protein stability index (doa10∆)	protein stability index (pdr5∆)	protein stability index (san1∆)	protein stability index (ubr1∆)
TSAKEPSENDVFYRMQQ [RPO31]	3.08 ± 0.082	3.08 ± 0.092	3.13 ± 0.14	2.7 ± 0.099
TSDLVKSLGLKLPLSVI [RPS17A]	1.12 ± 0.07	1.52 ± 0.078	1.86 ± 0.16	1.95 ± 0.091
TSEMKVLSIPPANHLQS [YGL100W/SEH1]	2.64 ± 0.067	2.15 ± 0.076	2.39 ± 0.081	2.56 ± 0.05
TSFEQGEITFDGIGGLT [RPT4]	3.1 ± 0.085	3.18 ± 0.074	3.05 ± 0.066	3.49 ± 0.059
TSGTNIAGTFNVGKPDQ [YOR098C/NUP1]	3.22 ± 0.088	3.01 ± 0.11	3.27 ± 0.079	3.21 ± 0.1
TSIANAFRRIMISEVPS [RPC40]	1.71 ± 0.043	1.83 ± 0.046	2.45 ± 0.061	1.88 ± 0.042
TSIRLEGDELENKTKKD [SRB4]	–	3.78 ± 0.26	–	–
TSKQHKRSGHRTAPKSD [RPL18A]	3.18 ± 0.23	–	3.1 ± 0.14	3.06 ± 0.2
TSLFGSSSAQQTKSNGT [YJL041W/NSP1]	3.23 ± 0.11	3.4 ± 0.098	2.71 ± 0.13	3.19 ± 0.073
TSLFHKFILSGFIFTSM [RRI2]	2.09 ± 0.046	1.66 ± 0.03	1.94 ± 0.07	1.52 ± 0.044
TSNASMNTTLGSIGSRK [YAR002W/NUP60]	3.32 ± 0.1	3.27 ± 0.11	3.37 ± 0.063	3.26 ± 0.085
TSPGFGVSSPGFSPTSP [RPO21]	2.7 ± 0.077	2.66 ± 0.071	2.5 ± 0.058	2.93 ± 0.043
TSPSYSPTSPSYSPTSP [RPO21]	2.64 ± 0.045	3 ± 0.038	2.77 ± 0.033	2.81 ± 0.03
TSQHSDSLTQNNNNAPI [YOR098C/NUP1]	2.72 ± 0.051	2.95 ± 0.036	2.94 ± 0.043	2.88 ± 0.031
TTARNDLGVVFARAANG [CSL4]	1.87 ± 0.056	2.02 ± 0.12	1.87 ± 0.14	2.39 ± 0.048
TTESNSRLKALNLQFKA [YLR335W/NUP2]	3.25 ± 0.11	3.04 ± 0.064	3.15 ± 0.066	2.98 ± 0.073
TTFEYIIKERALLSKVK [SNF2]	1.58 ± 0.046	1.67 ± 0.048	1.41 ± 0.071	1.37 ± 0.036
TTFRNEYGKHDFKNEES [MED8]	3.05 ± 0.1	3.01 ± 0.084	3.14 ± 0.051	3.28 ± 0.096
TTFTHCEIHPSMILGVA [RPB2]	1.75 ± 0.11	2.39 ± 0.075	1.3 ± 0.14	2.57 ± 0.098
TTFTKVAAKWNTSLISL [PRP8]	2.09 ± 0.052	2.39 ± 0.06	2.4 ± 0.082	2.06 ± 0.036
TTGISSTGAADGGYNAQ [SMC2]	3.32 ± 0.13	3.4 ± 0.093	3.23 ± 0.069	3.17 ± 0.11
TTIQTEKVRPTPGEVAS [MCD1]	2.74 ± 0.043	2.44 ± 0.041	2.8 ± 0.04	2.84 ± 0.034
TTKERKKSRLGNSFHLM [PRP8]	2.7 ± 0.066	2.83 ± 0.065	2.57 ± 0.062	2.48 ± 0.054
TTLDAEKVFTQGLNILE [FAS1]	3.17 ± 0.11	3.21 ± 0.1	3.32 ± 0.091	3.28 ± 0.064
TTQRRYEKAQKDLENAQ [SMC1]	3.05 ± 0.098	3.31 ± 0.069	3.2 ± 0.052	3.14 ± 0.1
